PMC2900196

What was measured:
[1] = biological target: Grass carp reovirus (GCRV) inner capsid shell protein VP3 (Grass carp reovirus (GCRV)); experiment: cryo-EM structure
[2] = biological target: Grass carp reovirus (GCRV) turret protein VP1 (Grass carp reovirus (GCRV)); experiment: cryo-EM structure

Substance	stoichiometry N [1]	stoichiometry N [2]
Grass carp reovirus (GCRV) inner capsid shell protein VP3 (natural protein)	120	–
Grass carp reovirus (GCRV) turret protein VP1 (natural protein)	–	5
